Results from publication PMC10998906.

Key:
Assay in all cases: negative-stain EM
[1] = molecular target: H2/1 GCN4 (SG57 head, PR8 stalk, GCN4-trimerized) (influenza A virus A/Puerto Rico/8/34/Mount Sinai(H1N1) | influenza A virus A/Singapore/1/1957(H2N2))
[2] = molecular target: H5 GCN4 (IN05 HA, GCN4-trimerized) (influenza A virus A/Indonesia/5/2005(H5N1))
[3] = molecular target: H5/1 GCN4 (IN05 head, PR8 stalk, GCN4-trimerized) (influenza A virus A/Puerto Rico/8/34/Mount Sinai(H1N1) | influenza A virus A/Indonesia/5/2005(H5N1))

H2/1 GCN4 (SG57 head, PR8 stalk, GCN4-trimerized) (domain or fragment)
stoichiometry N [1]: 3

H5 GCN4 (IN05 HA, GCN4-trimerized) (domain or fragment)
stoichiometry N [2]: 3

H5/1 GCN4 (IN05 head, PR8 stalk, GCN4-trimerized) (domain or fragment)
stoichiometry N [3]: 3
